According to publication PMC5309953, “IRAV (FLJ11286), an Interferon-Stimulated Gene with Antiviral Activity against Dengue Virus, Interacts with MOV10”:

B1: ssRNA 20-mer (ssRNA)
RNA: AGUUGUUAGUCUACGUGGAC
B2: ssDNA 20-mer (ssDNA)
DNA: AGTTGTTAGTCTACGTGGAC

Molecular target: IRAV (FLJ11286) (UniProt Q9NUL5 1-269)
Assay: fluorescence polarization; FP: oligos in 100 mM KCl, 20 mM HEPES pH 7.4 (heated to 85 C, slow cooled); protein purified in 200 mM NaCl, 20 mM HEPES pH 7.4; assay temperature not stated
Conditions: protein: recombinant; tags: N-terminal His-MBP; label: 3'-FAM; single strand

Chain of IRAV (FLJ11286) (Q9NUL5 1-269): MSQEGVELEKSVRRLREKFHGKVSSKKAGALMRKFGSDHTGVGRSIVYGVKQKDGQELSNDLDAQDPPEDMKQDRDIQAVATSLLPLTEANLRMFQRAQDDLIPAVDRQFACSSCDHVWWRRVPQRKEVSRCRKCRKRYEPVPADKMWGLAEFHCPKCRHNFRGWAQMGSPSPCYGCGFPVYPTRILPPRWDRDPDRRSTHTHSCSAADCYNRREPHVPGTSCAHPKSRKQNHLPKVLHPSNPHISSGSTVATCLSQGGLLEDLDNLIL

Binder	binding result
B1	binds
B2	binds
